Target: T1, SARS-CoV-2 full-length spike, WT D614G, expressed on the cell surface (SARS-CoV-2, wild type with D614G, UniProt A0A6H1PJZ3, D614G)
T1 construct: also called wild-type spike
Assay: flow cytometry on cells
Conditions: one partner purified

B1: REGN10987 (class III) (antibody, V domains shown)
VH: QVQLVESGGGVVQPGRSLRLSCAASGFTFSNYAMYWVRQAPGKGLEWVAVISYDGSNKYYADSVKGRFTISRDNSKNTLYLQMNSLRTEDTAVYYCASGSDYGDYLLVYWGQGTLVTVSS
VL: QSALTQPASVSGSPGQSITISCTGTSSDVGGYNYVSWYQQHPGKAPKLMIYDVSKRPSGVSNRFSGSKSGNTASLTISGLQSEDEADYYCNSLTSISTWVFGGGTKLTVL
binding result: binds
